Type: physicochemical
Conditions: about 2.5±1.0 mg/mL conjugate in 10 mM PBS buffer (pH=7.4), 37° C., shaker 100 rpm; […]; average release of free drug per day

In the case of “conjugate of N-(4-(aminomethyl)phenyl)-4-(((3R,4R)-1-(2-cyanoacetyl)-4-methylpiperidin-3-yl)(methyl)amino)-7H-pyrrolo[2,3-d]pyrimidine-7-carbothioamide and HA [Example 23]”, the “Release rate (%/day)” value is reported as 1.01%/day.

Same assay, conditions: about 2.5±1.0 mg/mL conjugate in 10 mM PBS buffer (pH=7.4), 37° C., shaker 100 rpm; daily ultrafiltration (30 k), free drug by HPLC; average release of free drug per day

In order of falling “Release rate (%/day)” value:
1. conjugate between HA (Sodium hyaluronate) and [4-[[(3R,4R)-1-(2-cyanoacetyl)-4-methyl-3-piperidyl]-methyl-amino]pyrrolo[2,3-d]pyrimidin-7-yl]methyl 4-aminobutanoate [Example 69]  16.47%/day
2. conjugate between HA (Sodium hyaluronate) and [4-[[(3R,4R)-1-(2-cyanoacetyl)-4-methyl-3-piperidyl]-methyl-amino]pyrrolo[2,3-d]pyrimidin-7-yl]methyl 2-aminoacetate [Example 68]  10.81%/day
3. conjugate of 2-chloroethyl 4-[[(3R,4R)-1-(2-cyanoacetyl)-4-methyl-3-piperidyl]-methyl-amino]pyrrolo[2,3-d]pyrimidine-7-carboxylate and HA [Example 57]  9.28%/day
4. conjugate of 2-azaspiro[3.3]heptan-6-yl-4-(((3R,4R)-1-(2-cyanoacetyl)-4-methylpiperidin-3-yl)(methyl)amino)-7H-pyrrolo[2,3-d]pyrimidine-7-carboxylate and HA [Example 73]  1.90%/day
5. conjugate of 3-((3R,4R)-3-((7-(6-amino-2-azaspiro[3.3]heptane-2-carbonyl)-7H-pyrrolo[2,3-d]pyrimidin-4-yl)(methyl)amino)-4-methylpiperidin-1-yl)-3-oxopropanenitrile and HA [Example 81]  0.28%/day

— US20230256106A1, “DRUG DELIVERY SYSTEM FOR LOCALLY DELIVERING THERAPEUTIC AGENTS AND USES THEREOF” (priority 2020, published 2023)
